Molecular target: CXCL12 (UniProt P48061-2 22-89)
Assay: MST

Chain of CXCL12 (P48061 22-89): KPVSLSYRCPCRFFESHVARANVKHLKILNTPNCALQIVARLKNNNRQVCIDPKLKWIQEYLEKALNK

B1: 6His-tagged full-length HMGB1 (residues 1-214), labelled with NT647 (natural protein, UniProt P63159 1-215, looked up)
chain: MGKGDPKKPRGKMSSYAFFVQTCREEHKKKHPDASVNFSEFSKKCSERWKTMSAKEKGKFEDMAKADKARYEREMKTYIPPKGETKKKFKDPNAPKRPPSAFFLFCSEYRPKIKGEHPGLSIGDVAKKLGEMWNNTAADDKQPYEKKAAKLKEKYEKDIAAYRAKGKPDAAKKGVVKAEKSKKKKEEEDDEEDEEDEEEEEEEEDEDEEEDDDDE
modifications: non-covalently labelled with the NT647 fluorescence dye
- Kd: 4 ± 0.4 µM

From publication doi:10.1101/563890 (bioRxiv, 2019)
